The results in this text go back to patent publication US20250188188A1 (DIANTHUS THERAPEUTICS OPCO, published 2025).

To fix the notation:
T1: active human C1s purified from human serum (CompTech, Tyler, TX, catalog number A104) (human, UniProt P09871 16-437; P09871 438-688)
T1 sequence 1: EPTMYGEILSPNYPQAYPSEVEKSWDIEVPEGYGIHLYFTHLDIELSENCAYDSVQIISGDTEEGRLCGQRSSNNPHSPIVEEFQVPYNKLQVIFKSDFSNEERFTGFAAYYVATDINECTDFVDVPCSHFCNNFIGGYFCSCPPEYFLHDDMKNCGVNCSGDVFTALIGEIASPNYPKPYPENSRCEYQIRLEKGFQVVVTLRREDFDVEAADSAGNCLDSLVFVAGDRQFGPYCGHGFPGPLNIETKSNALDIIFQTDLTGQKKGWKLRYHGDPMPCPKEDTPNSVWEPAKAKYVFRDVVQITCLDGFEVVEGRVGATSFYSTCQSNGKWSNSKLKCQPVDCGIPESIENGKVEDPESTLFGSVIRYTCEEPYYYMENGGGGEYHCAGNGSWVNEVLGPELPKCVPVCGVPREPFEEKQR
T1 sequence 2: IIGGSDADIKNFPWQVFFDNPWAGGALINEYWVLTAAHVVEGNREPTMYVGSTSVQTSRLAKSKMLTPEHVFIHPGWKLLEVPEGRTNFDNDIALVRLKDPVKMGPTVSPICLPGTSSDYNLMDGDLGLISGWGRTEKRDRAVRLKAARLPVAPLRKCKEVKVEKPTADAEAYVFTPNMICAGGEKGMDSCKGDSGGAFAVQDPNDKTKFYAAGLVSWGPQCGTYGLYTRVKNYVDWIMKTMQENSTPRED

B1: MAB2 (US20220380483A1) (antibody, V domains shown)
VH: QVQLVESGGGLVKPGGSLRLSCAASGFTFSDYYMSWIRQAPGKGLEWVSYISRSGSTKYYADSVKGRFTISRDNAKNSLYLQMNSLRAEDTAVYYCARDETDYALDYWGQGTLVTVSS
VL: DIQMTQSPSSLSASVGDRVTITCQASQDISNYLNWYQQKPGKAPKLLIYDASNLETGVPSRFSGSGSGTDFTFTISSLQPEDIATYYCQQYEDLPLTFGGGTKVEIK
B2: MAB9 (antibody, V domains shown)
VH: QVQLVESGGGLVKPGGSLRLSCAASGFTFSDYYMSWIRQAPGKGLEWVSYISRSGSTKYYADSVKGRFTISRDNAKNSLYLQMNSLRAEDTAVYYCARDENYALDWWGQGTLVTVSS
VL: DIQMTQSPSSLSASVGDRVTITCQASQDISNYLNWYQQKPGKAPKLLIYDASNLETGVPSRFSGSGSGTDFTFTISSLQPEDIATYYCQHYEDYPLTFGGGTKVEIK
notes: The IgG4 YTE form is entered separately as IgG4-MAB9
B3: MAB22 (antibody, V domains shown)
VH: EVQLVESGGGVVRPGGSLRLSCAASGFTFDDYGMSWVRQAPGKGLEWVSGINWEGGSTGYADSVKGRFTISRDNAKNSLYLQMNSLRAEDTALYYCARDEQLGGKYYYYYYMDVWGKGTTVTVSS
VL: DIQMTQSPSSLSASVGDRVTITCRASQGIRNDLGWYQQKPGKAPKRLIYTASNLQSGVPSRFSGSGSGTEFTLTISSLQPEDFATYYCLQYRSHPLTFGGGTKVEIK
notes: IgG
B4: MAB25 (antibody, V domains shown)
VH: EVQLVESGGGVVRPGGSLRLSCAASGFTFDDYGMSWVRQAPGKGLEWVSGINWEGGSTGYADSVKGRFTISRDNAKNSLYLQMNSLRAEDTALYYCARDEQLGGIKYYYYYMDVWGKGTTVTVSS
VL: DIQMTQSPSSLSASVGDRVTITCRASQGIRNDLGWYQQKPGKAPKRLIYTASNLQSGVPSRFSGSGSGTEFTLTISSLQPEDFATYYCLQYKQYPLTFGGGTKVEIK
notes: IgG
B5: MAB28 (antibody, V domains shown)
VH: EVQLVESGGGVVRPGGSLRLSCAASGFTFDDYGMSWVRQAPGKGLEWVSGINWEGGSTGYADSVKGRFSISRDNAKNSLYLQMNSLRAEDTALYYCARDEQLGGLKYYYYYMDVWGKGTTVTVSS
VL: DIQMTQSPSSLSASVGDRVTITCRASQGIRNDLGWYQQKPGKAPKRLIYTASNLQSGVPSRFSGSGSGTEFTLTISSLQPEDFATYYCLQYHSYPLRFGGGTKVEIK
notes: IgG
B6: MAB26 (antibody, V domains shown)
VH: EVQLVESGGGVVRPGGSLRLSCAASGFTFDDYGMSWVRQAPGKGLEWVSGINWEGGSTGYADSVKGRFSISRDNAKNSLYLQMNSLRAEDTALYYCARDEQLGGLKYYYYYMDVWGKGTTVTVSS
VL: DIQMTQSPSSLSASVGDRVTITCRASQGIRNDLGWYQQKPGKAPKRLIYTASNLQSGVPSRFSGSGSGTEFTLTISSLQPEDFATYYCLQTNIYPLTFGGGTKVEIK
notes: IgG
B7: MAB24 (antibody, V domains shown)
VH: EVQLVESGGGVVRPGGSLRLSCAASGFTFDDYGMSWVRQAPGKGLEWVSGINWEGGSTGYADSVKGRFTISRDNAKNSLYLQMNSLRAEDTALYYCARDEQLGGTTYYYYYMDVWGKGTTVTVSS
VL: DIQMTQSPSSLSASVGDRVTITCRASQGIRNDLGWYQQKPGKAPKRLIYTASNLQSGVPSRFSGSGSGTEFTLTISSLQPEDFATYYCLQTNIYPLTFGGGTKVEIK
notes: IgG
B8: MAB30 (antibody, V domains shown)
VH: EVQLVESGGGVVRPGGSLRLSCAASGFTFDDYGMSWVRQAPGKGLEWVSGINWEGGSTGYADSVKGRFTISRDNAKNSLYLQMNSLRAEDTALYYCARDEQLGGRHYYYYYMDVWGKGTTVTVSS
VL: DIQMTQSPSSLSASVGDRVTITCRASQGIRNDLGWYQQKPGKAPKRLIYTASNLQSGVPSRFSGSGSGTEFTLTISSLQPEDFATYYCLQYNAYPLIFGGGTKVEIK
notes: IgG
B9: MAB15 (antibody, V domains shown)
VH: QVQLVQSGAEVKKPGASVKVSCKVSGDTLTELSMHWVRQAPGKGLEWMGTFDPEEGETIYAQKFQGRVTMTEDTSTDTAYMELSSLRSEDTAVYYCVTKGLAWLPYYSWGQGTLVTVSS
VL: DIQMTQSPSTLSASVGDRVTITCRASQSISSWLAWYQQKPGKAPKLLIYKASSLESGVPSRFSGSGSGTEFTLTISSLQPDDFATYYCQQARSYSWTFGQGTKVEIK
notes: IgG
B10: MAB3 (antibody, V domains shown)
VH: QVQLVESGGGLVKPGGSLRLSCAASGFTFSDYYMSWIRQAPGKGLEWVSYISRSGSTKYYADSVKGRFTISRDNAKNSLYLQMNSLRAEDTAVYYCARDETDYAFDEWGQGTLVTVSS
VL: DIQMTQSPSSLSASVGDRVTITCQASQDISNYLNWYQQKPGKAPKLLIYDASNLETGVPSRFSGSGSGTDFTFTISSLQPEDIATYYCKQYEDYPLTFGGGTKVEIK
notes: IgG
B11: MAB4 (antibody, V domains shown)
VH: QVQLVESGGGLVKPGGSLRLSCAASGFTFSDYYMSWIRQAPGKGLEWVSYISRSGSTKYYADSVKGRFTISRDNAKNSLYLQMNSLRAEDTAVYYCARDESQYALDYWGQGTLVTVSS
VL: DIQMTQSPSSLSASVGDRVTITCQASQDISNYLNWYQQKPGKAPKLLIYDASNLETGVPSRFSGSGSGTDFTFTISSLQPEDIATYYCHQYEDYPLTFGGGTKVEIK
notes: The IgG4 YTE form is entered separately as IgG4-MAB4
B12: MAB1 (antibody, V domains shown)
VH: QVQLVESGGGLVKPGGSLRLSCAASGFTFSDYYMSWIRQAPGKGLEWVSYISRSGSTKYYADSVKGRFTISRDNAKNSLYLQMNSLRAEDTAVYYCARDQEDYALDYWGQGTLVTVSS
VL: DIQMTQSPSSLSASVGDRVTITCQASQDISNYLNWYQQKPGKAPKLLIYDASNLETGVPSRFSGSGSGTDFTFTISSLQPEDIATYYCEQYEDYPLTFGGGTKVEIK
notes: 191g-derived clone expressed as IgG in 293 cells
B13: MAB7 (antibody, V domains shown)
VH: QVQLVESGGGLVKPGGSLRLSCAASGFTFSDYYMSWIRQAPGKGLEWVSYISRSGSTKYYADSVKGRFTISRDNAKNSLYLQMNSLRAEDTAVYYCARDETDYAYDNWGQGTLVTVSS
VL: DIQMTQSPSSLSASVGDRVTITCQASQDISNYLNWYQQKPGKAPKLLIYDASNLETGVPSRFSGSGSGTDFTFTISSLQPEDIATYYCQQYEDYPLVFGGGTKVEIK
notes: IgG
B14: MAB2 (antibody, V domains shown)
VH: QVQLVESGGGLVKPGGSLRLSCAASGFTFSDYYMSWIRQAPGKGLEWVSYISRSGSTKYYADSVKGRFTISRDNAKNSLYLQMNSLRAEDTAVYYCARDETDYGWDYWGQGTLVTVSS
VL: DIQMTQSPSSLSASVGDRVTITCQASQDISNYLNWYQQKPGKAPKLLIYDASNLETGVPSRFSGSGSGTDFTFTISSLQPEDIATYYCKQYEDYPLTFGGGTKVEIK
notes: IgG

One test deals with T1, active human C1s purified from human …. Put plainly: cell-based or functional assay.
With B1, the “IC50 in the RBC lysis assay (FIG. 4C)” value worked out at 61.2 nM.

Another test shares this target. Put plainly: SPR, antibody captured via anti-human Fc, C1s in solution.
As for B2, the affinity, expressed as Kd, was 0.306 nM; the koff worked out at 0.000127 s⁻¹; the kon is 414000 M⁻¹ s⁻¹.

Consider B3, for which binding was characterised by a dissociation constant (Kd) of 4.17 nM, the koff is 0.000335 s⁻¹ and the kon was 80400 M⁻¹ s⁻¹.

For the molecule B4, the Kd came out at 5.57 nM, the koff was determined as 0.000621 s⁻¹ and the kon was 111000 M⁻¹ s⁻¹.

Consider B5, for which the Kd came out at 2.89 nM, the koff amounted to 0.000409 s⁻¹ and the kon came out at 141000 M⁻¹ s⁻¹.

On to B6, for which the Kd stood at 6.52 nM, the koff was found to be 0.00055 s⁻¹ and the on-rate constant (kon) was 84500 M⁻¹ s⁻¹.

Molecule B7 displayed a Kd of 3.49 nM, a koff of 0.000328 s⁻¹ and a kon of 93900 M⁻¹ s⁻¹.

Take B8: the dissociation constant (Kd) is 6.01 nM, the koff is 0.000688 s⁻¹ and the kon turned out to be 115000 M⁻¹ s⁻¹.

B9 had a Kd of 6.39 nM, a koff of 0.000737 s⁻¹ and a kon of 115000 M⁻¹ s⁻¹.

B10 yielded a dissociation constant Kd of 0.932 nM, a koff of 0.000209 s⁻¹ and a kon of 224000 M⁻¹ s⁻¹.

Molecule B11 showed a Kd of 1.22 nM, a koff of 0.000232 s⁻¹ and a kon of 190000 M⁻¹ s⁻¹.

Take B12: the Kd is 0.95 nM, the koff is 0.000255 s⁻¹ and the kon was found to be 268000 M⁻¹ s⁻¹.

In turn, B13 had a Kd of 1.22 nM, a koff of 0.000223 s⁻¹ and a kon of 184000 M⁻¹ s⁻¹.

B14 registered a dissociation constant (Kd) of 1.83 nM, a koff of 0.000215 s⁻¹ and a kon of 118000 M⁻¹ s⁻¹.
